Data published in the supplement of paper PMC9170038.

Test system: K4 kissing-loop RNA reporter
Experiment: apparent KD of K4 kissing-loop reporter; higher = weaker reporter binding
Settings: Eterna round: R107
Description: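 RNA-MaP round R107: designed RNA switches with theophylline, tryptophan, arginine or FMN aptamers are transcribed on-chip within common flanks. They are titrated with a labelled K4 kissing-loop RNA reporter in RNA-MaP buffer (100 mM Tris pH 7.5, 80 mM KCl, 4 mM MgCl2), without ligand or with the indicated ligand. Median apparent KD per design.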

[1] = input ligand: theophylline 20 uM
[2] = input ligand: tryptophan 2.4 mM
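Also: bound reporter read as fluorescence of individual clusters on recovered sequencing chips by microscopy, with normalized cluster intensities fitted with a binding model.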

| Sequence | apparent KD of K4 kissing-loop reporter (input ligand: FMN 200 uM) | apparent KD of K4 kissing-loop reporter (input ligand: arginine 13.2 mM) | apparent KD of K4 kissing-loop reporter (input ligand: none) | apparent KD of K4 kissing-loop reporter [1] | apparent KD of K4 kissing-loop reporter [2] |
| --- | --- | --- | --- | --- | --- |
| GCGCAUGUUAAAGGAUAUAGCAGGUGAUACAAGAAAGUGAGUGAUGUUUAUGUAGAUGAUGAUAUGUUAGAAGGUUAACAAGCGC [abcdefghijklmnop] | 693 nM | 639 nM | 842 nM | 788 nM | 600 nM |
| GCGGCCCAGCCGGAUACCAGUGACCCGCUGGGAACCGCGGGCCCAGAGUGAUGUUCGGGACACCCUUGGCAGCCGCCUGGGACGC [#2 Same State - Theophylline B Attempt #17 (HarryS)] | 588 nM | 126 nM | 546 nM | 334 nM | 193 nM |
| GCUAGCAUGGCAGGAUAUAGCAAUAGGAGUGAUGUUCCUUGGUAGGUGAGUGAUGUUCACUACCAACUAGAAGGGCCAUGCUAGC | 139 nM | 111 nM | 126 nM | 108 nM | 129 nM |
| GCUAGGAUGGCAGGAUAUAGUUCGUGAGUGAUGUUCAAAGAACUAAGAGGGACACCUCAUUCUAAACUAGAAGGGCCAUCCUAGC | 246 nM | 275 nM | 276 nM | 421 nM | 337 nM |
| GCUAUGGUAGGAAGGAGCGCUUAUUUAUUAAUAAGAGUGAUGUUCGAUAGUAGAUAUUUAUAGCAGGUAGGUCGCCUACUAUAGC [Arginine B K4 12] | 186 nM | 196 nM | 167 nM | 341 nM | 167 nM |
| GCUAUGGUAGGAAGGAGCGCUUAUUUAUUUUUACGAGUGAUGUUCGGUAGUAGAUAGUUAAAGCAGGUAGGUCGCCUACUAUAGC [Arginine B K4 16] | 141 nM | 112 nM | 148 nM | 135 nM | 123 nM |
| GCUAUGGUAGGAAGGAGCGCUUGCUCGGUCAUAUGAGUGAUGUUCGAGACUGAGCAUUUAUAGCAGGUAGGUCGCCUACUAUAGC [Arginine B K4 9] | 235 nM | 206 nM | 182 nM | 242 nM | 177 nM |
| GGAAAGCCAGUGAUGUUGGCAUAAACUGAAGGAGCGCGUGAAAACGCAGGUAGGUCGCAGAACCUUGCCAACUAUAUUAUUUACC [Ex Arginine A K4 21] | 128 nM | 221 nM | 160 nM | 221 nM | 135 nM |
| GGACAAGCAUUAGGAUAUAUAGAGCGAAACGCAAUUGAGUGAUGUUCAAAAGCAUAGGGCGAGGAAAUAGAAGGAAUGCACGGGC [Default title] | 192 nM | 180 nM | 216 nM | 151 nM | 152 nM |
| GGAGGGAUCUCGGCCGCCACUCAUAAGAAAUGGGCCUCAGAGAUAUAGUGAUGUUAUGUAAAGAAGAGGACCGGGAGAAAGAAGG [ExTryptoB.Db] | 148 nM | 141 nM | 141 nM | 135 nM | 144 nM |
| GGAUAGGAUAGAGGAUAUGGCUUACGCAGAAAUAACUUAUUGUGUAAAUCCAUAGGGAGUGAUGUUCCAGAAGGCUGUCCUAUCG [MatMod 17 - Jieux - Exclusion - FMN B] | 415 nM | 212 nM | 251 nM | 244 nM | 201 nM |
| GGAUCCACCAGUGAUGUUGGAGAAAACUCCAAGGAUAUGACGAAAGUCAGAAGGUGGUAAUAAGACGUCAAAGACGUCGGAUCCA [FmnA 19 #SwitchBubble #K4Early] | 1400 nM | 149 nM | 101 nM | 323 nM | 150 nM |
| GGAUCCACCAGUGAUGUUGGAGAAAACUCCAAGGAUAUGACGAAAGUCAGAAGGUGGUAGACUGGUCAAAGUCCGGUCGGAUCCA [FmnA10 U66] | 297 nM | 77.4 nM | 338 nM | 297 nM | 262 nM |
| GGAUCCACCAGUGAUGUUGGAGAAAACUCUAAGGAUAUGACGAAAGUCAGAAGGUGGUAGACUGGUCAAAGUCCGGUCGGAUCCA [FmnA10 U30+U66] | 237 nM | 191 nM | 577 nM | 756 nM | 249 nM |
| GGAUCCACCAGUGAUGUUGGAGAAAACUUCAAGGAUAUGACGAAAGUCAGAAGGUGGUAGACUGGGCAAAGUCCGGUCGGAUCCA [FmnA10 U29+G66] | 543 nM | 228 nM | 296 nM | 402 nM | 274 nM |
| GGAUCCACCAGUGAUGUUGGAGUAAUCUCCAAGGAUAUGACGAAAGUCAGAAGGUGGUAAAUAGACGUCAAAGACGUCGGAUCCA [FmnA 22 #SwitchBubble #K4Early] | 499 nM | 78.3 nM | 97.9 nM | 234 nM | 69 nM |
| GGAUCUGCCAGUGAUGUUGGUUAAUAUAUCAAGGAUAUGACGAAAGUCAGAAGGUGAAAGACUGGACAAAGUCCAGUCGGAUCCA [KL-SSFMN-A20] | 237 nM | 312 nM | 352 nM | 460 nM | 270 nM |
| GGAUGGUAGGCGGCCGCCACUAAAACUGAACAAAUAUAAACCAGUGAUGUUGGUAUGAUGAAGUAUAGGACCGGGCCUAGAUAGA [Exclusion - Tryptophan B (Freestyle 1)] | 124 nM | 134 nM | 143 nM | 160 nM | 122 nM |
| GGCAGUGAUGUUGCCAGUGGCAGAUGCGAAGGAGCGCGGUGAGACGCAGGUAGGUCGCGCAUUGAAAUUGCUGUCACUAGAAUGC [whbob_Ex_Arginine_A_2t127] | 258 nM | 285 nM | 283 nM | 305 nM | 208 nM |
| GGCAUGCGUAGAGUGAUGUUCUAAGAUGAUACCAGUGCGGAAACGCACCCUUGGCAGCAUCUGACGAGCAUGCCGGCGAAAGCCU | 792 nM | 586 nM | 814 nM | 607 nM | 771 nM |
| GGGAGGAAAAUUUUCCUCAAAAGUUGGCUACAGGAUAUCGUGGGAAUGAGAAGGGUAACCGAGACGCCCAGUGAUGUUGGGUGCC [Antegete] | 415 nM | 247 nM | 318 nM | 251 nM | 245 nM |
| GGGCAAGUGAGUGAUGUUCGAUGAUGCUUAAAGGAUAUGUAGGAAUACAGAAGGUUAUAUUCCCUGACAUUAGAUCUUUACAGGG [theeternabot_exclusion_KL_FMN_A_44] | 117 nM | 134 nM | 105 nM | 151 nM | 90.4 nM |
